For 167 variants, abundance fitness results are on record in the Human Domainome abundance scans (Beltran et al. 2025).

± gives the uncertainty stated by the source.

B1: Chromodomain-helicase-DNA-binding protein 4, residues 365 to 417; numbered along this chain, Q14839 (parent)
chain: YETDHQDYCEVCQQGGEIILCDTCPRAYHMVCLDPDMEKAPEGKWSCPHCEKE

Variants of B1 are the subject of the series. Briefly: abundance fitness (aPCA) (normalised: wild type 0, dead -1); higher = more abundant; growth selection in yeast, the domain comes from the species named. The conditions noted are these: Homo sapiens.
On to A40C, for which the abundance fitness is -0.035 ± 0.16.

Consider A40N, for which the abundance fitness was -0.351 ± 0.27.

A40T: the abundance fitness is -0.151 ± 0.14.

For the variant A40P, the abundance fitness is -0.209 ± 0.12.

As for A40E, the abundance fitness was -0.102 ± 0.16.

In the case of M30L, the abundance fitness was -0.149 ± 0.075.

For M30I, the abundance fitness is -0.02 ± 0.19.

Regarding M30F, the abundance fitness is -0.19 ± 0.14.

With M30D, the abundance fitness was -0.272 ± 0.12.

Regarding M30E, the abundance fitness was found to be 0.075 ± 0.12.

With G16S, the abundance fitness was 0.069 ± 0.098.

Regarding G16Y, the abundance fitness was -0.262 ± 0.32.

For the variant G16N, the abundance fitness worked out at 0.144 ± 0.22.

In the case of G16M, the abundance fitness is -0.095 ± 0.16.

G16Q: the abundance fitness turned out to be 0.036 ± 0.14.

Consider G16K, for which the abundance fitness came to 0.026 ± 0.16.

Take G16H: the abundance fitness was -0.12 ± 0.2.

For G16A, the abundance fitness is -0.114 ± 0.1.

For K44T, the abundance fitness worked out at 0.218 ± 0.15.

On to K44Y, for which the abundance fitness was -0.31 ± 0.18.

Consider K44V, for which the abundance fitness was -0.109 ± 0.11.

For the variant K44I, the abundance fitness is -0.427 ± 0.3.

As for H29T, the abundance fitness was -0.79 ± 0.15.

Take H29F: the abundance fitness was -1.05 ± 0.29.

For H29C, the abundance fitness turned out to be 0.028 ± 0.16.

Turning to H29G, the abundance fitness is -0.698 ± 0.093.

As to H29Y, the abundance fitness was -0.841 ± 0.16.

For the variant H29Q, the abundance fitness is -0.746 ± 0.14.

H29S: the abundance fitness is -0.477 ± 0.11.

Consider M37T, for which the abundance fitness was -0.329 ± 0.12.

For M37N, the abundance fitness is 0.141 ± 0.23.

Consider M37A, for which the abundance fitness is -0.067 ± 0.11.

Take M37Q: the abundance fitness is -0.103 ± 0.15.

As to V11I, the abundance fitness was -0.064 ± 0.1.

Take V11Q: the abundance fitness was -0.268 ± 0.18.

With R26D, the abundance fitness was -0.249 ± 0.17.

As to R26W, the abundance fitness is -0.791 ± 0.15.

Regarding R26A, the abundance fitness is -0.137 ± 0.11.

Take R26M: the abundance fitness came to 0.183 ± 0.14.

As to R26L, the abundance fitness is -0.231 ± 0.1.

In the case of R26C, the abundance fitness is -0.462 ± 0.16.

Take T3A: the abundance fitness is -0.396 ± 0.14.

T3K: the abundance fitness was 0.205 ± 0.16.

Turning to T3L, the abundance fitness came to 0.141 ± 0.1.

Regarding T3P, the abundance fitness is -0.225 ± 0.16.

Take T3G: the abundance fitness stood at 0.13 ± 0.1.

On to T3H, for which the abundance fitness was -0.461 ± 0.29.

As for T3F, the abundance fitness turned out to be 0.059 ± 0.16.

Regarding T3V, the abundance fitness was 0.103 ± 0.12.

For the variant D22A, the abundance fitness was found to be 0.056 ± 0.098.

Turning to D22P, the abundance fitness was -0.721 ± 0.26.

With D22N, the abundance fitness is -0.101 ± 0.14.

As to D22V, the abundance fitness was -0.065 ± 0.11.

D22F: the abundance fitness was -0.129 ± 0.19.

Turning to D22L, the abundance fitness is -0.34 ± 0.13.

With D22S, the abundance fitness is -0.272 ± 0.12.

For the variant P48L, the abundance fitness was -0.126 ± 0.1.

For the variant P48F, the abundance fitness was -0.165 ± 0.22.

As for P48K, the abundance fitness is -0.29 ± 0.18.

Take P48M: the abundance fitness was 0.07 ± 0.12.

Take P48N: the abundance fitness was -0.678 ± 0.3.

On to P48E, for which the abundance fitness is -0.151 ± 0.12.

Turning to P48A, the abundance fitness is -0.002 ± 0.11.

Consider P48V, for which the abundance fitness is -0.04 ± 0.11.

Consider P48H, for which the abundance fitness is -0.057 ± 0.19.

As to C32F, the abundance fitness is -1.02 ± 0.25.

For the variant C32V, the abundance fitness was -0.63 ± 0.12.

With C32G, the abundance fitness was -0.967 ± 0.13.

As to C32W, the abundance fitness was -0.936 ± 0.13.

In the case of C32E, the abundance fitness is -0.504 ± 0.17.

In the case of E51L, the abundance fitness is -0.275 ± 0.11.

As to E51S, the abundance fitness is -0.127 ± 0.11.

As to E51M, the abundance fitness is -0.03 ± 0.15.

E51W: the abundance fitness was -0.338 ± 0.11.

For E51C, the abundance fitness was -0.227 ± 0.13.

E51Y: the abundance fitness is -0.221 ± 0.23.

For E51I, the abundance fitness is -0.331 ± 0.22.

Take E42Q: the abundance fitness is -0.012 ± 0.17.

Consider E42D, for which the abundance fitness was -0.182 ± 0.16.

Regarding E42K, the abundance fitness is 0.026 ± 0.18.

As to E42C, the abundance fitness was -0.026 ± 0.21.

Regarding E42I, the abundance fitness is -0.261 ± 0.23.

Consider E42W, for which the abundance fitness was -0.49 ± 0.14.

Turning to E42H, the abundance fitness is -0.394 ± 0.21.

In the case of W45R, the abundance fitness is -0.162 ± 0.09.

Consider W45N, for which the abundance fitness was -0.051 ± 0.18.

With W45D, the abundance fitness is -0.313 ± 0.2.

Regarding W45Q, the abundance fitness came out at 0.109 ± 0.14.

As to W45H, the abundance fitness is -0.119 ± 0.21.

Turning to W45L, the abundance fitness is -0.218 ± 0.097.

S46Y: the abundance fitness is -0.003 ± 0.16.

Consider S46D, for which the abundance fitness was -0.168 ± 0.14.

In the case of S46I, the abundance fitness is -0.489 ± 0.23.

For S46P, the abundance fitness is -0.258 ± 0.14.

As for S46C, the abundance fitness was 0.031 ± 0.16.

Turning to C50I, the abundance fitness is -0.526 ± 0.28.

On to C50K, for which the abundance fitness is -0.344 ± 0.17.

Consider C50S, for which the abundance fitness was -0.222 ± 0.11.

For L20V, the abundance fitness was -0.028 ± 0.1.

For L20C, the abundance fitness is -0.045 ± 0.12.

Consider L20T, for which the abundance fitness came to 0.036 ± 0.13.

As for L20F, the abundance fitness was -0.096 ± 0.17.

In the case of L20I, the abundance fitness was determined as 0.023 ± 0.15.

On to L20S, for which the abundance fitness was -0.013 ± 0.096.

Consider L20P, for which the abundance fitness was 0.149 ± 0.12.

On to K39Y, for which the abundance fitness is -0.077 ± 0.17.

For the variant K39W, the abundance fitness was -0.172 ± 0.11.

Regarding K39L, the abundance fitness was -0.132 ± 0.1.

Regarding K39T, the abundance fitness is -0.217 ± 0.15.

With C47M, the abundance fitness was -0.882 ± 0.17.

Regarding C47N, the abundance fitness is -0.5 ± 0.27.

Consider C47R, for which the abundance fitness is -0.848 ± 0.11.

As for C47K, the abundance fitness was -0.81 ± 0.2.

With C47D, the abundance fitness was -0.468 ± 0.17.

As to C47S, the abundance fitness was -0.99 ± 0.14.

As for C47V, the abundance fitness was -1.11 ± 0.16.

Turning to C47G, the abundance fitness is -0.867 ± 0.11.

As for H49F, the abundance fitness is -0.068 ± 0.19.

In the case of H49W, the abundance fitness is -0.175 ± 0.15.

For H49P, the abundance fitness is -0.041 ± 0.12.

Regarding H49M, the abundance fitness was -0.354 ± 0.16.

In the case of P25V, the abundance fitness was -0.241 ± 0.11.

On to P25E, for which the abundance fitness is 0.198 ± 0.12.

In the case of P25D, the abundance fitness was -0.276 ± 0.18.

Regarding P25G, the abundance fitness is -0.044 ± 0.096.

For T23F, the abundance fitness is -0.099 ± 0.15.

For the variant T23Q, the abundance fitness is -0.107 ± 0.18.

For the variant T23I, the abundance fitness was -0.236 ± 0.14.

In the case of T23V, the abundance fitness was -0.231 ± 0.12.

As to T23M, the abundance fitness is -0.297 ± 0.18.

Take T23Y: the abundance fitness is -0.296 ± 0.18.

With Q14E, the abundance fitness stood at 0.223 ± 0.28.

Take Q14G: the abundance fitness was -0.013 ± 0.11.

On to Q14I, for which the abundance fitness is -0.084 ± 0.15.

On to Q14Y, for which the abundance fitness is -0.338 ± 0.23.

For the variant Q14C, the abundance fitness is -0.337 ± 0.12.

As to I19P, the abundance fitness was -0.849 ± 0.19.

I19F: the abundance fitness was -0.404 ± 0.3.

As for I19K, the abundance fitness was 0.127 ± 0.14.

In the case of I19M, the abundance fitness is 0.277 ± 0.17.

In the case of I19T, the abundance fitness is -0.101 ± 0.12.

I19Q: the abundance fitness is -0.124 ± 0.18.

Turning to V31A, the abundance fitness is 0.121 ± 0.11.

Consider V31G, for which the abundance fitness is -0.017 ± 0.091.

As to V31F, the abundance fitness is -0.031 ± 0.16.

With V31P, the abundance fitness worked out at 0 ± 0.14.

For V31Y, the abundance fitness was 0.112 ± 0.16.

Take V31I: the abundance fitness was -0.234 ± 0.15.

Regarding V31W, the abundance fitness was -0.236 ± 0.14.

For V31S, the abundance fitness is 0.044 ± 0.11.

Consider D36S, for which the abundance fitness worked out at 0.202 ± 0.11.

D36N: the abundance fitness is 0.026 ± 0.2.

D36K: the abundance fitness came out at 0.06 ± 0.18.

Take D36T: the abundance fitness came out at 0.078 ± 0.22.

As to D36G, the abundance fitness was -0.079 ± 0.1.

Take D36M: the abundance fitness was -0.185 ± 0.2.

For the variant D36V, the abundance fitness was -0.052 ± 0.11.

For the variant C12L, the abundance fitness was -0.962 ± 0.11.

C12D: the abundance fitness was -0.944 ± 0.28.

Turning to C12I, the abundance fitness was -0.342 ± 0.23.

On to C12S, for which the abundance fitness was -0.977 ± 0.12.

With C12H, the abundance fitness was -0.948 ± 0.45.

As for C12K, the abundance fitness was -0.775 ± 0.17.

With C12G, the abundance fitness is -0.799 ± 0.1.

As to A27F, the abundance fitness is -0.172 ± 0.17.

For A27T, the abundance fitness is -0.094 ± 0.12.

A27V: the abundance fitness is -0.077 ± 0.1.
